Drawing on the supplement of paper PMC12042874, this text covers amyloid nucleation score for 98 substances.

± gives the uncertainty stated by the source.

A short description of one series: amyloid nucleation score (Sup35N fusion, yeast selection) (log enrichment); library NNK2; higher = more nucleation; inactive = no reads after selection. Summed up:
(§1)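 The nucleation score is the log enrichment of output over input reads, calculated with DiMSum and centred on the mode score of non-aggregating sequences. Sequences with under 100 input reads were excluded. Reads came from Illumina sequencing of plasmid inserts from psi-negative yeast expressing Sup35N fused to peptides of 20 random codons, induced 24 hours with 100 μM copper sulfate and grown 7 days at 30°C without adenine and uracil.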
Substance LLGGWESHSRRNVWYAAGLC came in with an amyloid nucleation score of -0.711 ± 1.1.

MSLCGYNYI: the amyloid nucleation score result was “inactive”.

VCCFLLHQN: the amyloid nucleation score stood at 6.88 ± 0.083.

Consider SHWCIVYKGLRNVIVC, for which the amyloid nucleation score entry was “inactive”.

As to TSLYRVSKM, the amyloid nucleation score was -0.945 ± 0.76.

With YISVCSYCH, the amyloid nucleation score is 4.9 ± 0.056.

For GLWLRFVCSIYFLMYIVHIN, the amyloid nucleation score result was “inactive”.

Consider AALCRMFWTAISYWCEWSLG, for which the amyloid nucleation score was 0.157 ± 0.55.

IFRTFFIYKEFCGFLWCVGG: the amyloid nucleation score is 1.02 ± 0.32.

On to DIMAAIYMDG, for which the amyloid nucleation score was found to be 0.715 ± 0.43.

Substance SFPYNHFYMDYMPVRAPLVV came in with an amyloid nucleation score of -0.153 ± 1.1.

For the substance VYYLCVWF, the amyloid nucleation score is -1.18 ± 0.41.

Regarding LFQSLNLISINSVVPYEPVT, the amyloid nucleation score turned out to be 2.43 ± 0.092.

VKVLSLVFTGMVPMQYSRYA gave an amyloid nucleation score of 11.31 ± 0.049.

LTVLFLYLSLRCHSYNPAHA gave an amyloid nucleation score of -0.841 ± 1.1.

For LIGFLEEKVLLFIITWCFQ, the amyloid nucleation score result is “inactive”.

For ASLTASAGVVFFYTPTRRYN, the amyloid nucleation score came to 3.16 ± 0.14.

QFILFCIPTPNQ gave an amyloid nucleation score of 4.93 ± 0.08.

With WTGSFRMSRQHMWNSTSFQM, the amyloid nucleation score was -0.215 ± 0.5.

On to KDNYNLNTGSSTISGHRWFA, for which the amyloid nucleation score result was “inactive”.

On to GNVRVECANLYRAVLPDMGH, for which the amyloid nucleation score was -0.167 ± 0.63.

As to VNMLEQKGRMSDETPCTATP, the amyloid nucleation score is 0.107 ± 0.79.

In turn, REDGSPVGLLGGDHWVDFAQ yielded an amyloid nucleation score of 1.38 ± 0.19.

The next series can be described thus: amyloid nucleation score (Sup35N fusion, yeast selection) (log enrichment); library NNK3; higher = more nucleation; inactive = no reads after selection. Summed up: as §1
LQRTWLKVFGASCFICDDFL yielded an amyloid nucleation score of 1.99 ± 0.097.

On to KMLQLVVGIRILVNRMSWSR, for which the amyloid nucleation score entry was “inactive”.

Consider LTKCPCRLLCRLRSRARRMG, for which the amyloid nucleation score is -0.328 ± 0.98.

TVARMRFSTMTRDAQCVGRL registered an amyloid nucleation score of 0.107 ± 0.9.

In the case of TLGMLHRNWYYLLF, the amyloid nucleation score entry was “inactive”.

On to HVIHGCNSIFYSVS, for which the amyloid nucleation score entry was “inactive”.

Take WGLGFFAI: the amyloid nucleation score result was “inactive”.

NSCYTASCS came in with an amyloid nucleation score of -0.381 ± 0.63.

Consider NVAAISGILYSLLTFFLSGG, for which the amyloid nucleation score entry was “inactive”.

Take RTFRSFSQVYRPILRRGHSG: the amyloid nucleation score entry was “inactive”.

GYGSAQCQFRWWYCFE: the amyloid nucleation score was -0.317 ± 0.65.

As to KLPGLFQLCDMCVIGLKNAY, the amyloid nucleation score turned out to be 0.513 ± 0.17.

For RKTSSY, the amyloid nucleation score is -0.725 ± 0.84.

NVYTPSIFACWSLCEGFFGI came in with an amyloid nucleation score of 2.2 ± 0.063.

On to HLVCYLWE, for which the amyloid nucleation score worked out at 1.71 ± 0.093.

As to MYYMVTGRLVICRN, the amyloid nucleation score result is “inactive”.

Regarding CLSTFLGRSEKPL, the amyloid nucleation score result is “inactive”.

For LFSTCSSWTQFLLRPAVSAV, the amyloid nucleation score result is “inactive”.

As to INQYRPAPIQEAPLF, the amyloid nucleation score result is “inactive”.

For WLHINGVLYIFSMAGSALSV, the amyloid nucleation score entry was “inactive”.

With RYTIGFHLSMDSAYSISFYP, the amyloid nucleation score entry is “inactive”.

As for SRFEGLASDTDMYSRDSTWR, the amyloid nucleation score result is “inactive”.

As to DAAQCRSDNYALFELNSAHC, the amyloid nucleation score result is “inactive”.

As for VFSIKIYKPKSSFHDRFYSV, the amyloid nucleation score result is “inactive”.

As for PYYNRGFCGYGFSQVMEVL, the amyloid nucleation score result is “inactive”.

Consider VNPCLYGPYSSNNCSRSYFV, for which the amyloid nucleation score result is “inactive”.

With DEIACPYSAWLRMSMPEARS, the amyloid nucleation score result was “inactive”.

Regarding IGWYYSYITRKSENWVLVAL, the amyloid nucleation score entry was “inactive”.

For FGVVDYARRSWGYGSCGGHV, the amyloid nucleation score entry was “inactive”.

With DTVRHLISYRGLGRLHRHTM, the amyloid nucleation score entry is “inactive”.

VVTNG: the amyloid nucleation score was found to be 0.408 ± 0.17.

Regarding KYQLHYLDVFFYDVV, the amyloid nucleation score entry is “inactive”.

For the substance SCILHYSDYATWLGRYVKVI, the amyloid nucleation score entry was “inactive”.

Take MPRESLDLSTWVLVEEFIYI: the amyloid nucleation score entry is “inactive”.

GIYPSHHWGI: the amyloid nucleation score result was “inactive”.

Turning to RSFHNHHWTVNY, the amyloid nucleation score amounted to 1.46 ± 0.11.

As to RFYGDM, the amyloid nucleation score result was “inactive”.

Turning to HALGVSGRFDNNVVIFARGS, the amyloid nucleation score entry was “inactive”.

As to ADFTRGGT, the amyloid nucleation score result is “inactive”.

In the case of IPTIVPLAQLRVSVTSVWNL, the amyloid nucleation score entry was “inactive”.

In the case of GFRFNKIRMSPDSNTLCGCA, the amyloid nucleation score result was “inactive”.

As for GSRLAGLVVYDFSLSQWYFS, the amyloid nucleation score is 2.84 ± 0.079.

As to VLSRSKRTGISNYLCNLCEI, the amyloid nucleation score result was “inactive”.

Consider IHFLNWSARM, for which the amyloid nucleation score entry was “inactive”.

As to FYSYRTCDGRIAGIIAGNRA, the amyloid nucleation score result is “inactive”.

Regarding RFQCWVWSQ, the amyloid nucleation score entry is “inactive”.

As for LAMAPITKSSKLMLAFMR, the amyloid nucleation score entry was “inactive”.

Consider MHPKSNGTFMFKMAN, for which the amyloid nucleation score entry is “inactive”.

Consider NYLSASVCRRRDFI, for which the amyloid nucleation score result was “inactive”.

Regarding GDGNRWDRTGSCHLQGAYCR, the amyloid nucleation score result is “inactive”.

On to RDMYLLLREHGKGTIGKPWG, for which the amyloid nucleation score entry is “inactive”.

For the substance ERVRRTV, the amyloid nucleation score entry is “inactive”.

With WSINAIGQTHINSEVLGVLF, the amyloid nucleation score entry is “inactive”.

For the substance KGITYLNVRFKNRCPMVFGG, the amyloid nucleation score entry was “inactive”.

Consider LRCKKRLVRFLHVHEFAVEY, for which the amyloid nucleation score is -0.211 ± 0.52.

In the case of GSMLKAMELSDVVGSCIY, the amyloid nucleation score result is “inactive”.

As to WSFCGLYLNI, the amyloid nucleation score was found to be 1.62 ± 0.095.

Turning to WMMRD, the amyloid nucleation score entry was “inactive”.

For SCPLR, the amyloid nucleation score entry was “inactive”.

On to MDVYLRCSGYILTPKMAWSQ, for which the amyloid nucleation score entry is “inactive”.

Take DECYNVLRSVVYGMTSSTGW: the amyloid nucleation score result is “inactive”.

On to KVICVLFKIMKLF, for which the amyloid nucleation score came out at 0.442 ± 0.18.

Regarding LKLYTLLDRNSNKRTNAGMS, the amyloid nucleation score is -0.469 ± 0.88.

For FWSLNIQGSNYFLHIVNIGR, the amyloid nucleation score entry is “inactive”.

Turning to ANCVALTIVSYQVARDMKSK, the amyloid nucleation score worked out at 1.36 ± 0.087.

Turning to LAQSQNVVEARINSPWWDSP, the amyloid nucleation score entry was “inactive”.

As for CRKLYNISFLVLLTFFSHLF, the amyloid nucleation score result was “inactive”.

For GRDMMWAVCDFEAKLELETG, the amyloid nucleation score entry is “inactive”.

TERESMCFLYWVSRRHYTGN showed an amyloid nucleation score of -0.541 ± 0.55.

Regarding FDACRFHVHLRYLFNNRYMG, the amyloid nucleation score result was “inactive”.

In the case of FCHLLVMLFYKGPKVFCIVM, the amyloid nucleation score result was “inactive”.

For the substance GCFSCVCLP, the amyloid nucleation score entry was “inactive”.

Take NWYLALSGLVLSPYRGIRSG: the amyloid nucleation score entry is “inactive”.

Substance RMLGLNQYCSMLICTIVNFS gave an amyloid nucleation score of 1.19 ± 0.11.

Consider DKGLGVLRHLNRWIVCTGHD, for which the amyloid nucleation score entry was “inactive”.
